Source: publication PMC9008408

B1: TIM-4: TM (protein)
parent chain: MSKEPLILWLMIEFWWLYLTPVTSETVVTEVLGHRVTLPCLYSSWSHNSNSMCWGKDQCPYSGCKEALIRTDGMRVTSRKSAKYRLQGTIPRGDVSLTILNPSESDSGVYCCRIEVPGWFNDVKINVRLNLQRASTTTHRTATTTTRRTTTTSPTTTRQMTTTPAALPTTVVTTPDLTTGTPLQMTTIAVFTTANTCLSLTPSTLPEEATGLLTPEPSKEGPILTAESETVLPSDSWSSVESTSADTVLLTSKESKVWDLPSTSHVSMWKTSDSVSSPQPGASDTAVPEQNKTTKTGQMDGIPMSMKNEMPISQLLMIIAPSLGFVLFALFVAFLLRGKLMETYCSQKHTRLDYIGDSKNVLNDVQHGREDEDGLFTL
B2: TIM-4: N291Q (protein)
parent chain: B1 parent chain

Legend:
[1] = CHX chase, western blot of remaining protein, HEK293; conditions: glycan lost; control: wild type TIM-4, no TM
[2] = anti-Flag IP, ubiquitin blot, MG132, A549-LV-TIM-4-Flag; conditions: glycan lost; control: no TM
[3] = anti-HA IP, ubiquitin blot, MG132, A549; conditions: glycan lost; control: wild type TIM-4
[4] = confocal immunofluorescence, mCherry-Sec61b ER marker, A549; conditions: glycan lost; control: wild type TIM-4

Row | Protein | degradation_or_half_life [1] | other: ubiquitination [2] | other: ubiquitination [3] | localisation_or_trafficking [4]
1 | B1 | decreases | increases |  | 
2 | B2 |  |  | increases | changes, co-localized with the ER-tracker compared with wild type TIM-4
